Results as given in article PMC7812809 (Proceedings of the National Academy of Sciences of the …, 2020).
Changes are numbered by the printed parent chain. Names and notes keep the numbering of the source. Values belong to the molecule of their own block, whether it stands above or below them.

How the values were obtained:
Experiment in all cases: negative stain EM
[1] = molecular target: LdcI R97E/R468E double mutant (E. coli) (UniProt P0A9H3)
[2] = molecular target: Dendra2 T69A-LdcI (N-terminal fluorescent protein fusion of LdcI) (not stated | E. coli) (UniProt P0A9H3)
[3] = molecular target: LdcI-Dendra2 T69A (C-terminal fluorescent protein fusion of LdcI) (E. coli | not stated) (UniProt P0A9H3)
[4] = molecular target: LdcI E445A/D447A/R468E triple mutant (E. coli) (UniProt P0A9H3)
[5] = molecular target: LdcI-mGeosM (C-terminal fluorescent protein fusion of LdcI) (E. coli | not stated) (UniProt P0A9H3)
negative stain EM = molecular target: the molecule itself

- stoichiometry N [1]: 10
Molecule: LdcI R97E/R468E double mutant (from UniProt P0A9H3 1-715) (enzyme)

- stoichiometry N [2]: 2
Molecule: Dendra2 T69A-LdcI (N-terminal fluorescent protein fusion of LdcI) (from UniProt P0A9H3 1-715) (enzyme)

- stoichiometry N [3]: 10
Molecule: LdcI-Dendra2 T69A (C-terminal fluorescent protein fusion of LdcI) (from UniProt P0A9H3 1-715) (enzyme)

- stoichiometry N [4]: 10
Molecule: LdcI E445A/D447A/R468E triple mutant (from UniProt P0A9H3 1-715) (enzyme)

- stoichiometry N [5]: 10
Molecule: LdcI-mGeosM (C-terminal fluorescent protein fusion of LdcI) (from UniProt P0A9H3 1-715) (enzyme)

More lines, now with the values behind:

B1: LdcI E445A/D447A double mutant (enzyme, E. coli)
chain: MNVIAILNHMGVYFKEEPIRELHRALERLNFQIVYPNDRDDLLKLIENNARLCGVIFDWDKYNLELCEEISKMNENLPLYAFANTYSTLDVSLNDLRLQISFFEYALGAAEDIANKIKQTTDEYINTILPPLTKALFKYVREGKYTFCTPGHMGGTAFQKSPVGSLFYDFFGPNTMKSDISISVSELGSLLDHSGPHKEAEQYIARVFNADRSYMVTNGTSTANKIVGMYSAPAGSTILIDRNCHKSLTHLMMMSDVTPIYFRPTRNAYGILGGIPQSEFQHATIAKRVKETPNATWPVHAVITNSTYDGLLYNTDFIKKTLDVKSIHFDSAWVPYTNFSPIYEGKCGMSGGRVEGKVIYETQSTHKLLAAFSQASMIHVKGDVNEETFNEAYMMHTTTSPHYGIVASTETAAAMMKGNAGKRLINGSIERAIKFRKEIKRLRTASAGWFFDVWQPDHIDTTECWPLRSDSTWHGFKNIDNEHMYLDPIKVTLLTPGMEKDGTMSDFGIPASIVAKYLDEHGIVVEKTGPYNLLFLFSIGIDKTKALSLLRALTDFKRAFDLNLRVKNMLPSLYREDPEFYENMRIQELAQNIHKLIVHHNLPDLMYRAFEVLPTMVMTPYAAFQKELHGMTEEVYLDEMVGRINANMILPYPPGVPLVMPGEMITEESRPVLEFLQMLCEIGAHYPGFETDIHGAYRQADGRYTVKVLKEESKK
- binding result (negative stain EM): binds

B2: LdcI H694A (enzyme, E. coli)
chain: B1 chain with A445E, A447D, H694A
- binding result (negative stain EM): binds

B3: LdcI H694N (enzyme, E. coli)
chain: B1 chain with A445E, A447D, H694N
- binding result (negative stain EM): binds

B4: LdcI R97E (enzyme, E. coli)
chain: B1 chain with R97E, A445E, A447D
- binding result (negative stain EM): binds
